Reference: patent publication US20230048046A1 (CUGENE, published 2023)

B1: P-0176, IL-15i1 (GS insertion after N95) in IL-15/IL-15Rα heterodimeric Fc fusion format (Fc fusion)
chain 1: DKTHTCPPCPAPEAAGAPSVFLFPPKPKDTLMISRTPEVTCVVVDVSHEDPEVKFNWYVDGVEVHNAKTKPREEQYNSTYRVVSVLTVLHQDWLNGKEYKCKVSNKALPAPIEKTISKAKGQPREPQVYTLPPCREEMTKNQVSLSCAVKGFYPSDIAVEWESNGQPENNYKTTPPVLDSDGSFFLVSKLTVDKSRWQQGNVFSCSVMHEALHNHYTQKSLSLSPGEPKSSDKTHTSPPSPNWVNVISDLKKIEDLIQSMHIDATLYTESDVHPSCKVTAMKCFLLELQVISLESGDASIHDTVENLIILANNSLSSNGNVTESGCKECEELEEKNGSIKEFLQSFVHIVQMFINTS
chain 2: DKTHTCPPCPAPEAAGAPSVFLFPPKPKDTLMISRTPEVTCVVVDVSHEDPEVKFNWYVDGVEVHNAKTKPREEQYNSTYRVVSVLTVLHQDWLNGKEYKCKVSNKALPAPIEKTISKAKGQPREPQVCTLPPSREEMTKNQVSLWCLVKGFYPSDIAVEWESNGQPENNYKTTPPVLDSDGSFFLYSKLTVDKSRWQQGNVFSCSVMHEALHNHYTQKSLSLSPGEPKSSDKTHTSPPSPITCPPPMSVEHADIWVKSYSLYSRERYICNSGFKRKAGTSSLTECVLNKATNVAHWTTPSLKCIRDPALVHQRPAPP
B2: P-0177, IL-15i2 (GGSGG insertion after N95) in IL-15/IL-15Rα heterodimeric Fc fusion format (Fc fusion)
chain 1: DKTHTCPPCPAPEAAGAPSVFLFPPKPKDTLMISRTPEVTCVVVDVSHEDPEVKFNWYVDGVEVHNAKTKPREEQYNSTYRVVSVLTVLHQDWLNGKEYKCKVSNKALPAPIEKTISKAKGQPREPQVYTLPPCREEMTKNQVSLSCAVKGFYPSDIAVEWESNGQPENNYKTTPPVLDSDGSFFLVSKLTVDKSRWQQGNVFSCSVMHEALHNHYTQKSLSLSPGEPKSSDKTHTSPPSPNWVNVISDLKKIEDLIQSMHIDATLYTESDVHPSCKVTAMKCFLLELQVISLESGDASIHDTVENLIILANNSLSSNGNVTESGCKECEELEEKNGGSGGIKEFLQSFVHIVQMFINTS
chain 2: B1 chain 2
B3: huIL-15Rβ-6His (receptor, human, UniProt P14784 27-239, looked up)
chain: AVNGTSQFTCFYNSRANISCVWSQDGALQDTSCQVHAWPDRRRWNQTCELLPVSQASWACNLILGAPDSQKLTTVDIVTLRVLCREGVRWRVMAIQDFKPFENLRLMAPISLQVVHVETHRCNISWEISQASHYFERHLEFEARTLSPGHTWEEAPLLTLKQKQEWICLETLTPDTQYEFQVRVKPLQGEFTTWSPWSQPLAFRTKPAALGKD
notes: Coated on the ELISA plate; also called IL-15Rβ subunit; huIL-15R/3-6His (so in the source); not shown: 6His tag per the name

Tests used:
huIL-15Rβ-6His [1] = target: B3; experiment: ELISA EC50 against P-0153 (IL-15 wild type)
Procedure: (§1) The binding activity was tested in ELISA assay. Briefly, Nunc Maxisorp (ThermoFisher) plates were coated overnight at 4° C. with huIL-15R/3-6His at 1 μg/well (100 μl/well) in bicarbonate buffer pH 9.4 (ThermoFisher). After washing 3 times with PBS/0.05% Tween20, plates were incubated with SuperBlock (300 μl/well) at room temperature for 2 hrs. to block nonspecific binding. After washing, IL-15 compounds each at 3-fold serial dilutions with blocking buffer were added to the plates (100 μl/well) and incubated at room temperature for 1 hr. After washing, the Fc fusions were detected by 1 hr. incubation at room temperature with a goat anti-human IgG Fc secondary antibody conjugated with horseradish peroxidase (HRP) at 1:5000 dilution in blocking buffer (ThermoFisher) (100 μl/well). After washing, TMB substrate (ThermoFisher) was added (100 ul/well). Plates were sealed and incubated 5-20 min at room temperature in dark. Reaction was stopped by adding 2N sulfuric acid (Ricca Chemical) (50 uL/well) and absorbance was read at 450-590 nm.
(§2) The IL-15 variants have amino acid deletion, insertion or point mutations introduced in the human IL-15 peptide. […]

huIL-15Rβ-6His [2] = target: B3; experiment: ELISA, huIL-15Rβ-6His coated, anti-human IgG Fc-HRP detection
Procedure: as §1, §2

[3] = target: P-0313, C-terminal bivalent IL-15 S58D/IL-15Rα (non-covalent) Fc fusion protein (human, UniProt Q13261 31-107); experiment: ELISA

Fold change (huIL-15Rβ-6His [1]) [fold]	EC50 (huIL-15Rβ-6His [2]) [µM]	binding result [3]	Binder
16	0.0102		B1
59	0.038		B2
		binds	B3
